From article PMC11251166

Molecular target: ADP-ribosylated ubiquitin (ADPR-Ub) (UniProt P0CG48)
Test: ITC

## MavL_N322A
  Kd: 5.96 µM
